This data set can be described thus: total protein half-life in vivo (active degradation + dilution); higher = more stable protein.
The mark [1] stands for this setting: E. coli NCM3722 delta-clpP delta-lon delta-hslV, growth: N-lim chemostat, doubling time 6 h.
Where [2] appears, read: E. coli NCM3722 delta-clpP, growth: N-lim chemostat, doubling time 6 h.
[3] abbreviates: E. coli NCM3722 delta-hslV, growth: N-lim chemostat, doubling time 6 h.
[4] abbreviates: E. coli NCM3722 delta-lon, growth: N-lim chemostat, doubling time 6 h.
The mark [5] stands for this setting: E. coli NCM3722 delta-smpB, growth: N-lim chemostat, doubling time 6 h.
The mark [6] stands for this setting: wild type E. coli NCM3722, growth: C-lim chemostat, doubling time 3 h.
The mark [7] stands for this setting: wild type E. coli NCM3722, growth: C-lim chemostat, doubling time 12 h.
[8] abbreviates: wild type E. coli NCM3722, growth: N-lim chemostat, doubling time 6 h.
The mark [9] stands for this setting: wild type E. coli NCM3722, growth: N-lim chemostat, doubling time 12 h.
The mark [10] stands for this setting: wild type E. coli NCM3722, growth: P-lim chemostat, doubling time 6 h.
Setting [11] is: wild type E. coli NCM3722, growth: P-lim chemostat, doubling time 12 h.
The mark [12] stands for this setting: wild type E. coli NCM3722, growth: C-lim chemostat, doubling time 6 h.

± gives the standard deviation of the averaged measurements.

Turning to “MAVHLLIVDALNLIRRIHAVQGSPCVETCQHALDQLIMHSQPTHAVAVFDDENRSSGWRHQRLPDYKAGRPPMPEELHDEMPALRAAFEQRGVPCWSTSGNEADDLAATLAVKVTQAGHQATIVSTDKGYCQLLSPTLRIRDYFQKRWLDAPFIDKEFGVQPQQLPDYWGLAGISSSKVPGVAGIGPKSATQLLVEFQSLEGIYENLDAVAEKWRKKLETHKEMAFLCRDIARLQTDLHIDGNLQQLRLVR”, the “total protein half-life in vivo” value runs as follows: under setting [1], 4.94 ± 0.096 h; under setting [2], 4.23 ± 0.28 h; under setting [3], 4.29 h; under setting [4], 5.14 ± 0.59 h; under setting [5], 3.86 ± 0.59 h; under setting [6], 2.66 ± 0.54 h. Also, the “total protein half-life in vivo” value reads like this: under setting [7], 10.7 ± 0.93 h; under setting [8], 4.2 ± 0.5 h; under setting [9], 8.02 h; under setting [10], 5.06 ± 0.52 h; under setting [11], 10.7 ± 1.7 h.

As for “MSRFIPIELHHASRLLNHGPTVLITSFDEQSQRRNIMAAAWSMPVEFEPPRVAIVVDKSTWTRELIEHNGKFGIVIPGVAATNWTWAVGSVSGRDEDKFNCYGIPVVRGPVFGLPLVEEKCLAWMECRLLPATSAQEEYDTLFGEVVSAAADARVFVEGRWQFDDDKLNTLHHLGAGTFVTSGKRVTAG”, the “total protein half-life in vivo” value by setting is: under setting [1], 5.07 ± 0.36 h; under setting [2], 4.49 ± 0.06 h; under setting [3], 4.12 ± 0.3 h; under setting [4], 4.25 ± 0.39 h; under setting [5], 4.19 ± 0.066 h; under setting [6], 2.96 ± 0.065 h. For the same sequence, the “total protein half-life in vivo” value worked out at 4.15 ± 0.89 h under setting [12]; 9.97 ± 0.71 h under setting [7]; 4.27 ± 0.46 h under setting [8]; 6.92 ± 0.15 h under setting [9]; 5.45 ± 0.67 h under setting [10]; 10.4 ± 0.57 h under setting [11].

Consider “MIPFNAPPVVGTELDYMQSAMGSGKLCGDGGFTRRCQQWLEQRFGSAKVLLTPSCTASLEMAALLLDIQPGDEVIMPSYTFVSTANAFVLRGAKIVFVDVRPDTMNIDETLIEAAITDKTRVIVPVHYAGVACEMDTIMALAKKHNLFVVEDAAQGVMSTYKGRALGTIGHIGCFSFHETKNYTAGGEGGATLINDKALIERAEIIREKGTNRSQFFRGQVDKYTWRDIGSSYLMSDLQAAYLWAQLEAADRINQQRLALWQNYYDALAPLAKAGRIELPSIPDGCVQNAHMFYIKLRDIDDRSALINFLKEAEIMAVFHYIPLHGCPAGEHFGEFHGEDRYTTKESERLLRLPLFYNLSPVNQRTVIATLLNYFS”, for which the “total protein half-life in vivo” value is, setting by setting: under setting [1], 4.72 ± 0.099 h; under setting [2], 4.4 ± 0.0057 h; under setting [3], 4.83 ± 0.25 h; under setting [4], 4.45 h; under setting [5], 4.25 ± 0.17 h; under setting [6], 2.89 ± 0.68 h. The “total protein half-life in vivo” value runs as follows: under setting [12], 6.6 ± 1 h; under setting [7], 12.5 ± 1.2 h; under setting [8], 5.2 h; under setting [9], 8.13 ± 0.2 h; under setting [10], 6.1125 ± 0.0047 h; under setting [11], 12.33 ± 0.05 h.

On to “MRVENNNVSGQNHDPEQIDLIDLLVQLWRGKMTIIISVIVAIALAIGYLAVAKEKWTSTAIITQPDVGQIAGYNNAMNVIYGQAAPKVSDLQETLIGRFSSAFSALAETLDNQEEREKLTIEPSVKNQQLPLTVSYVGQTAEGAQMKLAQYIQQVDDKVNQELEKDLKDNIALGRKNLQDSLRTQEVVAQEQKDLRIRQIQEALQYANQAQVTKPQIQQTGEDITQDTLFLLGSEALESMIKHEATRPLVFSPNYYQTRQNLLDIESLKVDDLDIHAYRYVMKPMLPIRRDSPKKAITLILAVLLGGMVGAGIVLGRNALRNYNAK”, for which the “total protein half-life in vivo” value worked out at 6.28 ± 0.95 h under setting [1]; 6.967 ± 0.025 h under setting [2]; 6.99 ± 0.87 h under setting [3]; 6.083 ± 0.046 h under setting [4]; 6.13 ± 0.13 h under setting [5]; 3.05 ± 0.051 h under setting [6]. Also, the “total protein half-life in vivo” value is, setting by setting: under setting [12], 5.61 ± 0.062 h; under setting [7], 11.1 ± 1.2 h; under setting [8], 6.07 ± 0.17 h; under setting [9], 12 ± 1.5 h; under setting [10], 5.97 ± 0.15 h; under setting [11], 12.1 ± 0.5 h.

With “MMNFNNVFRWHLPFLFLVLLTFRAAAADTLLILGDSLSAGYRMSASAAWPALLNDKWQSKTSVVNASISGDTSQQGLARLPALLKQHQPRWVLVELGGNDGLRGFQPQQTEQTLRQILQDVKAANAEPLLMQIRLPANYGRRYNEAFSAIYPKLAKEFDVPLLPFFMEEVYLKPQWMQDDGIHPNRDAQPFIADWMAKQLQPLVNHDS [P0ADA1]”, the “total protein half-life in vivo” value by setting is: under setting [1], 4.1 ± 0.072 h; under setting [2], 4.87 ± 0.67 h; under setting [3], 6.432 ± 0.063 h; under setting [4], 6.67 ± 0.4 h; under setting [5], 4.99 ± 0.46 h; under setting [6], 3.25 ± 0.11 h. For the same sequence, the “total protein half-life in vivo” value is 6.228 ± 0.058 h under setting [12]; 11.1 ± 5.7 h under setting [7]; 5.25 ± 0.28 h under setting [8]; 11 ± 3.7 h under setting [9]; 5.23 ± 0.37 h under setting [10]; 11.4 ± 0.78 h under setting [11].
